Reference: PMC5736413

How the values were obtained:
[1] = target: recombinant mouse C3d (C1010A) (mouse) (UniProt P01027); experiment: SPR
[2] = target: FH19–20 19–20 (Homo sapiens) (UniProt P08603); experiment: SPR; conditions: cited from earlier work
FH19–20 19–20 (Homo sapiens), sequence (P08603 1104-1231): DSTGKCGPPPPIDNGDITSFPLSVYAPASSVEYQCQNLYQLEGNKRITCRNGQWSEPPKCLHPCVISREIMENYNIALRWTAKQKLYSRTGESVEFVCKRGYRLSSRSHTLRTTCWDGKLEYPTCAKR

recombinant mouse C3d (C1010A) (mouse), sequence (P01027 1002-1303 C1010A): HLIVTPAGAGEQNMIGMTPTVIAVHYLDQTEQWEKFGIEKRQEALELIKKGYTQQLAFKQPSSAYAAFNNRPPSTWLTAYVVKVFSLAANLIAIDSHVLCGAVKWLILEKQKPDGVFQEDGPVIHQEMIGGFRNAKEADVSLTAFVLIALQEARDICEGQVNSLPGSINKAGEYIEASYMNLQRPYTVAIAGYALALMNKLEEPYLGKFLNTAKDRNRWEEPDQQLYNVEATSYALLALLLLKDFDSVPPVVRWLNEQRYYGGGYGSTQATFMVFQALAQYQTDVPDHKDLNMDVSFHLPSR
C3d C3d, sequence (P01024 1002-1303): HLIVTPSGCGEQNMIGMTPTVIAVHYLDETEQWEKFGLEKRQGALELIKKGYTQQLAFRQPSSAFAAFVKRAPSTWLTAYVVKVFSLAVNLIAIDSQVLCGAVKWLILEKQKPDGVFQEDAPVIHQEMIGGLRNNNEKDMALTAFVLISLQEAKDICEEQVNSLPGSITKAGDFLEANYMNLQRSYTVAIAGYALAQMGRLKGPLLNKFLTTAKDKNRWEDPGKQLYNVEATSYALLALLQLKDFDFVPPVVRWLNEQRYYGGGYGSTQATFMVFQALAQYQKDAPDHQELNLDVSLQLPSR

Substance | Kd [1] [nM] | Kd [2] [nM]
recombinant mouse Factor H-related protein B (natural protein) | 546 | 
C3d C3d (from UniProt P01024) |  | 180
recombinant mouse Factor H-related protein A (prototype, class A clone 3A4/5G4) (natural protein) | 136 | 
recombinant mouse Factor H-related protein C (natural protein) | 1040 | 
